{"source": "patent US20100137221A1", "about": "“PEPTIDES THAT INTERACT WITH TOPOISOMERASE I AND METHODS THEREOF” (UNIVERSITY UTAH RESEARCH FOUNDATION, priority 2007, published 2010)", "key": {"[1]": {"biological_target": "T1, human topoisomerase I (human, UniProt P11387 1-765, limits assumed)", "T1 construct": "also called top1; top 1", "T1 sequence (looked up)": "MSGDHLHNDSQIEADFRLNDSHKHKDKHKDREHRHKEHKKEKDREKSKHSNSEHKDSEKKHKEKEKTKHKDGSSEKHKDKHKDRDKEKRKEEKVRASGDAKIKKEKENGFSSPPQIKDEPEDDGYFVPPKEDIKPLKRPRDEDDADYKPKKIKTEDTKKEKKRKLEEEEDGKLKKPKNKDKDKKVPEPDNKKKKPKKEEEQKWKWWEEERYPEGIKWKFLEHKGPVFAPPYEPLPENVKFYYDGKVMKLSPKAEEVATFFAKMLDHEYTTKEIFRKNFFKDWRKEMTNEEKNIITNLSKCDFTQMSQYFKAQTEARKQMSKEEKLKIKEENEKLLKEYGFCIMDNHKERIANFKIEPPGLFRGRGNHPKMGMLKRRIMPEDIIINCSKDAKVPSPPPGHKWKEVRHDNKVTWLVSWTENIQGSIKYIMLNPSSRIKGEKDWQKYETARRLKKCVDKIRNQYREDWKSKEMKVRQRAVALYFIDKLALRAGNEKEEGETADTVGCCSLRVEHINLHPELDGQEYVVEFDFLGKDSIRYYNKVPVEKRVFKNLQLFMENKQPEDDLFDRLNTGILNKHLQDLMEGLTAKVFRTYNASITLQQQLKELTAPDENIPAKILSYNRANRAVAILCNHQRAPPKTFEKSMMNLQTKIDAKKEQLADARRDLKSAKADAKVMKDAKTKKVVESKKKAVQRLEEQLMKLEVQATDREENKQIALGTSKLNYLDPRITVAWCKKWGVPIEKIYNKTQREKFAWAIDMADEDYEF", "experiment": "fluorescence polarization, human placental 91 kDa top1 titrated into 500 nM fluorescein-labeled T1BP1; the concentration is that of top1"}, "[2]": {"biological_target": "T1, human topoisomerase I", "experiment": "SPR (BIAcore 2000), T1BP2 on CM5 chip, top1 as analyte, Langmuir model", "procedure": "(§1) Binding analysis: The binding analysis of the peptides was performed on a BIAcore 2000 instrument. A four channel CM5 sensor chip was derivatized with three top1 binding peptides (T1BPs 1, 2 and 4) and a control surface left blank. Catalytically active top1 was used as the mobile or analyte phase and diluted in 150 mM NaCl, 30 mM HEPES, 0.05% P20 and injected at various concentrations (8.0, 4.0, 2.0, 1.0 and 0.4 nM) through the instrument's microfluidics sample handling system at a flow rate of 30 μl/minute. With each injection of a particular concentration of top1, association and dissociation data for three peptides were generated. Binding constants were determined using the BIAevaluation 2.1 software.\nT1BP2 affinity for top1: T1BP2 had remarkable affinity for top1 when assayed by surface plasmon resonance (FIG. 2a)."}, "[3]": {"biological_target": "T1, human topoisomerase I", "experiment": "SPR (BIAcore), T1BP2 on the chip, top1 as analyte, Langmuir model [cont'd) B]", "procedure": "These top1 experiments were evaluated with BIAevaluation Software 3.1 using Langmuir Kinetics to model the interaction. The accuracy of the fit to the model is illustrated by dashed lines representing actual data and narrow lines representing the fitted curves.\nas §1"}, "[4]": {"biological_target": "T1, human topoisomerase I", "experiment": "SPR (BIAcore), 100 kDa top1 applied at 1, 2.5, 5, 10 and 20 nM to the CPP4 flow cell, global fit [right panel]", "procedure": "Top 1 was applied to flow cells in 1, 2.5, 5, 10 and 20 nM concentrations. The overlaying curves represent the actual data for a given concentration of top 1 and the “fit” curves. Data were fit using the BIAeval 3000 global fitting software."}, "[5]": {"biological_target": "T1, human topoisomerase I", "experiment": "phage display biopanning against top1-DNA-9AC, analytical titering against top1", "procedure": "Phage display: Phage display was performed as described by Smith (Parmley 1989). Briefly, top1 was first biotinylated with a biotin derivative containing a spacer engineered to reduced steric interference (Pierce EZ-Link Biotin-PEO-Amine). The reaction was performed at a 5:1 molar ratio of biotin:top1 in 10 mM HEPES (pH 8.2) buffered 500 mM NaCl. The unreacted biotin was removed by gel filtration in a Biospin 30 column (BioRad) and biotinylated top1 was assayed for activity using a pull down method with streptavidin coated beads. The biotinylated top1 maintained catalytic activity. For phage display, 20 μg biotinylated top1 was reacted with a mixture of pBR322 and 9AC and 20 μg was applied to a 30 mm plastic petri dish coated with 10 μg of neutravidin (Pierce). The dish was then blocked with 3.0% bovine serum albumin, and 10 μl of a 10⁹/μl titer phage library in 100 μl TBS-0.05% Tween was added. Phage were allowed to associate with gentle rocking for 2 hours at 4° C., and then washed repeatedly over 2 hours at 4° C. with buffered saline containing 0.1% Tween. […]\nAnalytical titering: Ten μl of amplified phage clones (approximately 10¹² cfu) were incubated in 50 nM top1 for one hour at 4° C. on a rocker. […] Competent E. coli were added directly to the washed plates and the output assessed by counting a 10⁻⁶ dilution of the culture on tetracycline plates (FIG. 1). […]"}}}
{"binder": "SSQVVGVPQLMQSSP (also called CPP2)", "note": "[T1BP1]", "values": [{"measurement": "EC50 (read off the curve)", "setting": "[1]", "result": "~100", "unit": "nM"}]}
{"binder": "SAYAATVRGPLSSAS (Coupled to a CM5 chip for SPR; also called T1PB2; CPP3)", "note": "[T1BP2]", "values": [{"measurement": "Kd", "setting": "[2]", "result": 665, "unit": "nM"}, {"measurement": "Ka", "setting": "[3]", "result": "1.5e+06", "unit": "M⁻¹"}, {"measurement": "kd (s-1) (observed) at [Top1] 0.4 nM", "setting": "[3]", "result": 0.0028, "unit": "s⁻¹"}, {"measurement": "kd (s-1) (observed) at [Top1] 1.0 nM", "setting": "[3]", "result": 0.0028, "unit": "s⁻¹"}, {"measurement": "kd (s-1) (observed) at [Top1] 2.0 nM", "setting": "[3]", "result": 0.00281, "unit": "s⁻¹"}, {"measurement": "kd (s-1) (observed) at [Top1] 4.0 nM", "setting": "[3]", "result": 0.00282, "unit": "s⁻¹"}, {"measurement": "kd (s-1) (observed) at [Top1] 8.0 nM", "setting": "[3]", "result": 0.00283, "unit": "s⁻¹"}, {"measurement": "koff", "setting": "[3]", "result": 0.0028, "unit": "s⁻¹"}, {"measurement": "kon", "setting": "[3]", "result": 4210, "unit": "M⁻¹ s⁻¹"}]}
{"binder": "DRVPLVHVIFNSFGY (also called CPP4)", "note": "[T1BP3]", "values": [{"measurement": "binding result", "setting": "[4]", "result": "binds"}]}
{"binder": "EGQFTFPRGASE (12-mer, truncated due to a stop codon; also called CPP6; EGQFTFPRGASE)", "note": "[T1BP5]", "values": [{"measurement": "binding result", "setting": "[5]", "result": "binds"}]}
